Laboratory results reported in US20260234283A1 (published 2026).
Where a chain is given by its changes, count along the chain named. One block for each binder: values may come before it.

Tests used:
Test in all cases: Biacore
[1] = molecular target: recombinant human SIRPα-His V2 (human, UniProt P78324 31-370)
[2] = molecular target: T1, recombinant cyno SIRPα-His (cynomolgus monkey, UniProt A0A2K5VYQ9 31-372)
T1 chain: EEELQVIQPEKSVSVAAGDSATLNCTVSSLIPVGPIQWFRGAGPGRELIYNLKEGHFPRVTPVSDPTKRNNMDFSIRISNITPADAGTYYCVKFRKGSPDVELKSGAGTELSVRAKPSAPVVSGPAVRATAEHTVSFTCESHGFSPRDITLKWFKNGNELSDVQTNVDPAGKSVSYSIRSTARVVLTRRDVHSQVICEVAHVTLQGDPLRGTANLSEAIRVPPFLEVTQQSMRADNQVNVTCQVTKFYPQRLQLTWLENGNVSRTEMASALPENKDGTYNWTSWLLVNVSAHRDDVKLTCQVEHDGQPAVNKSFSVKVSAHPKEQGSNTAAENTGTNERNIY

[3] = molecular target: recombinant human SIRPα-His V8 (human, UniProt P78324 31-370)
recombinant human SIRPα-His V8, sequence (P78324 other isoform, or with tags, fused parts or gaps): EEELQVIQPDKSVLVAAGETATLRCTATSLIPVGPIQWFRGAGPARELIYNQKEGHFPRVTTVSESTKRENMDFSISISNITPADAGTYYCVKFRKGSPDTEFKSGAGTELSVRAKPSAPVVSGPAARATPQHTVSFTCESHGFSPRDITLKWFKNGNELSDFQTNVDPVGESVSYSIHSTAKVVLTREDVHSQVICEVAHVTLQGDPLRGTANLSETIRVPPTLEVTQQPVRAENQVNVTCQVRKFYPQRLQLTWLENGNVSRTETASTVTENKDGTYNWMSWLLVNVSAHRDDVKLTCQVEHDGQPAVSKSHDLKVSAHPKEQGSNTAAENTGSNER

recombinant human SIRPα-His V2, sequence (P78324 other isoform, or with tags, fused parts or gaps): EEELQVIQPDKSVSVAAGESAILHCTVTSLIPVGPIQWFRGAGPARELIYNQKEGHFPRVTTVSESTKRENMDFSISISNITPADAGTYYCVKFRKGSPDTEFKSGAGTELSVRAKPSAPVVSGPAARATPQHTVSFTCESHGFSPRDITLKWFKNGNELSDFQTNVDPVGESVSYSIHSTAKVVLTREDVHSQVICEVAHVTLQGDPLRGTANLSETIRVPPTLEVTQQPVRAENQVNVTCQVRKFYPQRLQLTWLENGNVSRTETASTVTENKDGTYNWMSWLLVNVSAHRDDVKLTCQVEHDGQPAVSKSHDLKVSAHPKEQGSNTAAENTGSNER

B1: 53.21A9.B11 (antibody, V domains shown)
VH: QVQLQESGPGLVKPSETLSLTCTVSGGSVSSGRYYWSWIRQPPGKGLEWIGYIYYSGSTNYNPSLKSRVTISVDTSKNQFSLKLTSVTAADTAVYYCARAYDWNYFFDYWGQGTLVTVSS
VL: DIVMTQSPLSLPVTPGEPASISCRSSQSLLYSNGYNYLEWYLQKPGQSPQLLIYLGSNRASGVPDRFSGSGSGTDFTLQISRVEAEDVGVYYCMQGLQTPITFGQGTRLEIK
- Kd [1]: 67.6 nM
- Kd [2]: 116 nM
- Kd [3]: 62.3 nM

B6: 49.91C2.A9 (antibody, V domains shown)
VH: EVKLLESGGGLVQPGGSLKLSCAASGFDFSRYWMSWVRQAPGKGLEWIGEINPDSSTINYTPSLKDKFIISRDNAKNTLYLQMSKVRSEDTALYYCATSFYGSSYWYFDVWGAGTTVTVSS
VL: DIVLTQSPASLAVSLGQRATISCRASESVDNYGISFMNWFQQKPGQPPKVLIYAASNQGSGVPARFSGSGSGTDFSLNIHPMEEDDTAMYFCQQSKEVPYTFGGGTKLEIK
- Kd [1]: 40.2 nM
- Kd [3]: 35 nM

B7: 49.64D3.A6 (antibody, V domains shown)
VH: EVMLVESGGGLVKPGGSLKLTCAASGFIFSNYAMSWVRQTPEKRLEWVATFSSGGSYTYYQDSVKGRFTVSRDNAKNTLYLQMSSLRSEDTAMYYCARSGWDGWFAYWGQGTLVTVSA
VL: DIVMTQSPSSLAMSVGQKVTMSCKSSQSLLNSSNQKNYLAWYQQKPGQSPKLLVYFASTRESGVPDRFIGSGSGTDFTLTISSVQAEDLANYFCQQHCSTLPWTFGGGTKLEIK
- Kd [1]: 3.17 nM
- Kd [2]: 22.6 nM
- Kd [3]: 2.66 nM

B8: 49.56C11.C1 (antibody, V domains shown)
VH: B7 VH with I28T, Y32H, S52G, Q61L, A97S
VL: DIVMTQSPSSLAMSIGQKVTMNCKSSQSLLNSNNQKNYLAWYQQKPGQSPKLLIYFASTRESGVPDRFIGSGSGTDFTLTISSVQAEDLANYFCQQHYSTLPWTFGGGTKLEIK
- Kd [1]: 3.41 nM
- Kd [2]: 22.3 nM
- Kd [3]: 2.68 nM

The next binders have a lower Kd [1] than those just listed; values first:

- Kd [1]: < 0.1 nM
- Kd [2]: 3.03 nM
- Kd [3]: < 0.1 nM
B2: 54.69B10.E7 (antibody, V domains shown)
VH: EVQLVESGGGLVQPGGSLRLSCAASGFTFSSYDMHWVRQTTGKGLEWVSVIGIAGDTYYAGSVKGRFTISRENAKSSLYLQMNSLRAGDTAVYYCARGGNWDDAFDIWGQGTMVTVSS
VL: DIQMTQSPSSLSASVGDRVTITCRASQDINNYLAWFQQKPGKAPKSLIYTTSSLQSGVPSKFSGSGSGTDFTLTISSLQPEDFATYYCQQYVSYPYTFGQGTKLEIK

- Kd [1]: < 0.1 nM
- Kd [2]: 2.65 nM
- Kd [3]: < 0.1 nM
B3: 54.58C2.B9.A2 (antibody, V domains shown)
VH: B2 VH with T40A, A54S, A60P, S76N
VL: B2 VL

- Kd [1]: 1.13 nM
- Kd [2]: 72.3 nM
- Kd [3]: 1.05 nM
B4: 54.8A5.A5 (antibody, V domains shown)
VH: B2 VH with G10D, V12I, T28S, V50A, I53T, A60P, S76N, M113V
VL: B2 VL with K42R, Y49F, T51A, S53R, T72S, V92T, S93F

- Kd [1]: < 0.1 nM
- Kd [2]: 3.17 nM
- Kd [3]: < 0.1 nM
B5: 54.76D9.B6 (antibody, V domains shown)
VH: B2 VH with T40A, A54S, A60P, S76N, Y79H, F105L
VL: B2 VL

- Kd [1]: 0.981 nM
- Kd [2]: 1.19 nM
- Kd [3]: 0.337 nM
B9: 56.16A1.H11 (antibody, V domains shown)
VH: EVQLVESGGGLVQPGRSMKLSCAASGFIFTNYDMAWVRQAPTKGLEWVASISYGGSRIYYRDSVKGRFTISRDDAKSTLYLQMDSLRSEDTATYYCTTDYGYNPSYYWYFDFWGPGTMVTVSS
VL: DIQMTQTPSSMPASLGERVTISCRASQGISNYLNWYQQKPDGTIKPLIYYTSNLQSGVPSRFSGSGSGTDYSLTISSLEPEDFAMYYCQQYDSSPYTFGAGTKLELKR
